From US6495664

Test system: GFP mutant K8 (-2M, -1G, M1R, S2R, K3R, G4A, E5S, E6I, L7I, S65A, K79R, E90N, N149K, V163A, I167T)

mouse recombinant protein kinase A catalytic subunit (Calbiochem #539-487)
apparent Km of phosphorylation, measured by 32P incorporation: an apparent Km of 9 µM | estimated Km of phosphorylation, based on quenching alone: an estimated Km of 7.7 µM
